From the Human Domainome abundance scans (Beltran et al. 2025)
± gives the uncertainty stated by the source.

B1: Cyclin-F, residues 28 to 80; numbered along this chain, P41002 (parent)
chain: RNLTILSLPEDVLFHILKWLSVEDILAVRAVHSQLKDLVDNHASVWACASFQE

Variants of: B1
Experiment: abundance fitness (aPCA) (normalised: wild type 0, dead -1); higher = more abundant; growth selection in yeast, the domain comes from the species named
Details: Homo sapiens

Row | Variant | abundance fitness
1 | RNLTILSLPEDVLFHILKWLSVSDILAVRAVHSQLKDLVDNHASVWACASFQE [E23S] | -0.186 ± 0.11
2 | RNLTILSLPEDVLFHILKWLSVTDILAVRAVHSQLKDLVDNHASVWACASFQE [E23T] | -0.477 ± 0.18
3 | RNLTILSLPEDVLFHILKWLSVVDILAVRAVHSQLKDLVDNHASVWACASFQE [E23V] | -0.372 ± 0.13
4 | RNLTILSLPEDVLFHILKWLSVWDILAVRAVHSQLKDLVDNHASVWACASFQE [E23W] | -0.577 ± 0.23
5 | RNLTILSLPEDVLFHILKWLSVYDILAVRAVHSQLKDLVDNHASVWACASFQE [E23Y] | -0.62 ± 0.2
6 | RNLTILSLPEDVLFHILKWLSVEAILAVRAVHSQLKDLVDNHASVWACASFQE [D24A] | -0.631 ± 0.13
7 | RNLTILSLPEDVLFHILKWLSVECILAVRAVHSQLKDLVDNHASVWACASFQE [D24C] | -0.716 ± 0.13
8 | RNLTILSLPEDVLFHILKWLSVEEILAVRAVHSQLKDLVDNHASVWACASFQE [D24E] | -0.388 ± 0.14
9 | RNLTILSLPEDVLFHILKWLSVEFILAVRAVHSQLKDLVDNHASVWACASFQE [D24F] | -1.06 ± 0.34
10 | RNLTILSLPEDVLFHILKWLSVEGILAVRAVHSQLKDLVDNHASVWACASFQE [D24G] | -0.624 ± 0.1
11 | RNLTILSLPEDVLFHILKWLSVEHILAVRAVHSQLKDLVDNHASVWACASFQE [D24H] | -0.708 ± 0.25
12 | RNLTILSLPEDVLFHILKWLSVEIILAVRAVHSQLKDLVDNHASVWACASFQE [D24I] | -0.684 ± 0.24
13 | RNLTILSLPEDVLFHILKWLSVEKILAVRAVHSQLKDLVDNHASVWACASFQE [D24K] | -0.832 ± 0.2
14 | RNLTILSLPEDVLFHILKWLSVELILAVRAVHSQLKDLVDNHASVWACASFQE [D24L] | -0.718 ± 0.11
15 | RNLTILSLPEDVLFHILKWLSVEMILAVRAVHSQLKDLVDNHASVWACASFQE [D24M] | -0.595 ± 0.17
16 | RNLTILSLPEDVLFHILKWLSVENILAVRAVHSQLKDLVDNHASVWACASFQE [D24N] | -1.11 ± 0.21
17 | RNLTILSLPEDVLFHILKWLSVEPILAVRAVHSQLKDLVDNHASVWACASFQE [D24P] | -0.661 ± 0.17
18 | RNLTILSLPEDVLFHILKWLSVEQILAVRAVHSQLKDLVDNHASVWACASFQE [D24Q] | -0.739 ± 0.31
19 | RNLTILSLPEDVLFHILKWLSVERILAVRAVHSQLKDLVDNHASVWACASFQE [D24R] | -0.797 ± 0.12
20 | RNLTILSLPEDVLFHILKWLSVESILAVRAVHSQLKDLVDNHASVWACASFQE [D24S] | -0.882 ± 0.12
21 | RNLTILSLPEDVLFHILKWLSVETILAVRAVHSQLKDLVDNHASVWACASFQE [D24T] | -0.68 ± 0.14
22 | RNLTILSLPEDVLFHILKWLSVEVILAVRAVHSQLKDLVDNHASVWACASFQE [D24V] | -0.784 ± 0.15
23 | RNLTILSLPEDVLFHILKWLSVEWILAVRAVHSQLKDLVDNHASVWACASFQE [D24W] | -0.717 ± 0.14
24 | RNLTILSLPEDVLFHILKWLSVEYILAVRAVHSQLKDLVDNHASVWACASFQE [D24Y] | -0.544 ± 0.15
25 | RNLTILSLPEDVLFHILKWLSVEDALAVRAVHSQLKDLVDNHASVWACASFQE [I25A] | -0.602 ± 0.1

Row | Variant | abundance fitness
26 | RNLTILSLPEDVLFHILKWLSVEDCLAVRAVHSQLKDLVDNHASVWACASFQE [I25C] | -0.527 ± 0.15
27 | RNLTILSLPEDVLFHILKWLSVEDDLAVRAVHSQLKDLVDNHASVWACASFQE [I25D] | -0.83 ± 0.17
28 | RNLTILSLPEDVLFHILKWLSVEDELAVRAVHSQLKDLVDNHASVWACASFQE [I25E] | -0.809 ± 0.17
29 | RNLTILSLPEDVLFHILKWLSVEDGLAVRAVHSQLKDLVDNHASVWACASFQE [I25G] | -1.08 ± 0.14
30 | RNLTILSLPEDVLFHILKWLSVEDHLAVRAVHSQLKDLVDNHASVWACASFQE [I25H] | -0.82 ± 0.25
31 | RNLTILSLPEDVLFHILKWLSVEDKLAVRAVHSQLKDLVDNHASVWACASFQE [I25K] | -0.568 ± 0.15
32 | RNLTILSLPEDVLFHILKWLSVEDLLAVRAVHSQLKDLVDNHASVWACASFQE [I25L] | -0.33 ± 0.088
33 | RNLTILSLPEDVLFHILKWLSVEDMLAVRAVHSQLKDLVDNHASVWACASFQE [I25M] | -0.346 ± 0.13
34 | RNLTILSLPEDVLFHILKWLSVEDNLAVRAVHSQLKDLVDNHASVWACASFQE [I25N] | -1.14 ± 0.41
35 | RNLTILSLPEDVLFHILKWLSVEDPLAVRAVHSQLKDLVDNHASVWACASFQE [I25P] | -0.806 ± 0.15
36 | RNLTILSLPEDVLFHILKWLSVEDRLAVRAVHSQLKDLVDNHASVWACASFQE [I25R] | -0.534 ± 0.087
37 | RNLTILSLPEDVLFHILKWLSVEDSLAVRAVHSQLKDLVDNHASVWACASFQE [I25S] | -0.783 ± 0.13
38 | RNLTILSLPEDVLFHILKWLSVEDTLAVRAVHSQLKDLVDNHASVWACASFQE [I25T] | -0.703 ± 0.17
39 | RNLTILSLPEDVLFHILKWLSVEDVLAVRAVHSQLKDLVDNHASVWACASFQE [I25V] | -0.292 ± 0.097
40 | RNLTILSLPEDVLFHILKWLSVEDWLAVRAVHSQLKDLVDNHASVWACASFQE [I25W] | -0.41 ± 0.1
41 | RNLTILSLPEDVLFHILKWLSVEDYLAVRAVHSQLKDLVDNHASVWACASFQE [I25Y] | -0.971 ± 0.23
42 | RNLTILSLPEDVLFHILKWLSVEDIAAVRAVHSQLKDLVDNHASVWACASFQE [L26A] | -0.283 ± 0.1
43 | RNLTILSLPEDVLFHILKWLSVEDICAVRAVHSQLKDLVDNHASVWACASFQE [L26C] | -0.256 ± 0.13
44 | RNLTILSLPEDVLFHILKWLSVEDIDAVRAVHSQLKDLVDNHASVWACASFQE [L26D] | -0.961 ± 0.29
45 | RNLTILSLPEDVLFHILKWLSVEDIEAVRAVHSQLKDLVDNHASVWACASFQE [L26E] | -0.5 ± 0.13
46 | RNLTILSLPEDVLFHILKWLSVEDIFAVRAVHSQLKDLVDNHASVWACASFQE [L26F] | -0.424 ± 0.13
47 | RNLTILSLPEDVLFHILKWLSVEDIGAVRAVHSQLKDLVDNHASVWACASFQE [L26G] | -0.451 ± 0.094
48 | RNLTILSLPEDVLFHILKWLSVEDIIAVRAVHSQLKDLVDNHASVWACASFQE [L26I] | -0.023 ± 0.29
49 | RNLTILSLPEDVLFHILKWLSVEDIKAVRAVHSQLKDLVDNHASVWACASFQE [L26K] | -0.043 ± 0.17
50 | RNLTILSLPEDVLFHILKWLSVEDIMAVRAVHSQLKDLVDNHASVWACASFQE [L26M] | -0.183 ± 0.14
